Where no end group is shown, it is not given here.
B1: ZTS-927: felinized anti IL-31 15H05 mAb, FEL_15H05_VH1 with Feline_HC_AlleleA_wt, FEL-15H05-VL1_FW2 light chain (antibody, V domains shown)
VH: QVLLVQSGAEVRTPGASVKIFCKASGYSFTSYTIHWLRQAPAQGLEWMGNINPTSGYTENNQRFKDRLTLTADTSTNTAYMELSSLRSADTAMYYCARWGFKYDGEWSFDVWGAGTTVTVSS
VL: EIQMTQSPSSLSASPGDRVTITCRASQGISIWLSWYQQKPGNIPKVLINKASNLHIGVPSRFSGSGSGTDFTLTISSLEPEDAATYYCLQSQTYPLTFGGGTKLEIK
modifications: feline constant regions joined; Felinized variable heavy mAb sequence, from Mus musculus and Felis catus; Felinized variable light mAb sequence, from Mus musculus and Felis catus
B2: Feline 11E12 1.2: felinized 11E12, FEL_11E12_VH1 paired with FEL_11E12_VL2 (antibody, V domains shown)
VH: QVLLVQSGAEVKKPGASVKIFCKASGYSFTYYDINWLRQAPEQGLEWMGWIFPGDGGTKYNETFKGRLTLTADTSTNTVYMELSSLRSADTAMYYCARGGTSVIRDAMDYWGQGALVTVSS
VL: EVVLTQSSAFLSRTLKEKATITCRASESVDNYGISFMHWYQQKPNQAPKLLVKRASNLESGAPSRFSGSGSGTDFTLTISSPEPEDAATYYCQQSNKDPLTFGQGT
B3: Feline 11E12 1.1 FW2: Fel_11E12_VH1 paired with Feline 11E12 VL1 carrying mouse FW2 (antibody, V domains shown)
VH: B2 VH
VL: EIQMTQSPSSLSASPGDRVTITCRASESVDNYGISFMHWYQQKPGQPPKLLIYRASNLESGVPSRFSGSGSGTDFTLTISSLEPEDAATYYCQQSNKDPLTFGQGT
B4: 15H05 mouse: canine chimera: mouse 15H05 variable regions on canine IgG constant regions (antibody)
heavy: QVQLQQSAAELARPGASVKMSCKTSGYTFTSYTIHWIKQRPGQGLEWIGNINPTSGYTENNQRFKDKTTLTVDRSSNTAYLQLHSLTSEDSAVYFCARWGFKYDGEWSFDVWGAGTTVTVSSASTTAPSVFPLAPSCGSTSGSTVALACLVSGYFPEPVTVSWNSGSLTSGVHTFPSVLQSSGLYSLSSMVTVPSSRWPSETFTCNVAHPASKTKVDKPVPKRENGRVPRPPDCPKCPAPEMLGGPSVFIFPPKPKDTLLIARTPEVTCVVVDLDPEDPEVQISWFVDGKQMQTAKTQPREEQFNGTYRVVSVLPIGHQDWLKGKQFTCKVNNKALPSPIERTISKARGQAHQPSVYVLPPSREELSKNTVSLTCLIKDFFPPDIDVEWQSNGQQEPESKYRTTPPQLDEDGSYFLYSKLSVDKSRWQRGDTFICAVMHEALHNHYTQESLSHSPGK
light: DIQMNQSPSSLSASLGDTITVTCRASQGISIWLSWYQQKPGNIPKVLINKASNLHIGVPPRFSGSGSGTHFTLTITSLQPEDIATYYCLQSQTYPLTFGGGTKLEINRNDAQPAVYLFQPSPDQLHTGSASVVCLLNSFYPKDINVKWKVDGVIQDTGIQESVTEQDKDSTYSLSSTLTMSSTEYLSHELYSCEITHKSLPSTLIKSFQRSEC

Experiments:
[1] = tested on: mAb ZTS-361; assay: Peptide block of mAb ZTS-361 inhibition of IL-31 mediated STAT3 phosphorylation in feline FCWF-4 macrophages; assay type: cell-based; conditions: for IC50, conjugated peptide: CRM197 conjugated, co-incubated 1 hour with 0.2 μM mAb ZTS-361, FCWF-4 cells
[2] = molecular target: feline IL-31; assay: Affinity of anti-IL-31 antibodies by surface plasmon resonance (Biacore), feline IL-31 surface; assay type: binding; conditions: IL-31 conjugated to the surface (FIG. 2)
Protocol: (§1) The affinity with which candidate mAbs bind canine and feline IL-31 was determined using surface plasmon resonance (SPR) on a Biacore system (Biocore Life Sciences (GE Healthcare), Uppsala, Sweden). To avoid affinity differences associated with differential surface preparation that can occur when immobilizing antibodies to surfaces; a strategy was employed where IL-31 was directly conjugated to the surface. Immobilization was obtained by amine coupling 5 μg/mL IL-31 using N-hydroxysuccinimide (NHS)/1-Ethyl-3-(3-dimethylaminopropyl) carbodiimide (EDC) chemistry. Chips were quenched with ethanolamine and the affinity with which all candidate mAbs bound to the immobilized IL-31 was evaluated. All curves were fit to a 1:1 model. Affinity constants (KD) less than 1×10^−11M (1E-11 M) are below the lower limit of quantitation of detection for the instrument. Results for affinity measurements are described herein.
Target sequence in this assay (as listed by the source): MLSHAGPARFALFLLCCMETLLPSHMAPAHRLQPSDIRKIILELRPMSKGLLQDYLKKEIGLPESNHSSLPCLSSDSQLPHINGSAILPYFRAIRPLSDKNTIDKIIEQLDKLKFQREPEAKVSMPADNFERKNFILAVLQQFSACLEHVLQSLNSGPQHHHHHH

[3] = tested on: feline IL-31; assay: Inhibition of feline IL-31 induced pSTAT3 signaling in feline FCWF4 macrophage-like cells; assay type: cell-based; conditions: 0.2 μg/mL feline IL-31, pSTAT3, FCWF4 cells (FIG. 3)
Protocol: (§2) To identify candidates with inhibitory activity, antibodies were assessed for their ability to affect IL-31-mediated STAT3 phosphorylation in either a canine or feline cell-based assay. STAT3 phosphorylation was determined in canine DH-82 (ATCC® CRL-10389™) or feline FCWF4 macrophage-like cells (ATCC CRL-2787). DH82 and FCWF4 cells were primed with canine interferon gamma (R&D Systems, Minneapolis, Minn.) at 10 ng/mL for 24 hours or feline interferon gamma (R&D Systems, Minneapolis, Minn.) at 125 ng/mL for 96 hours, respectively, to increase receptor expression. Both cell types were serum starved for 2 hours prior to IL-31 and mAb treatment. Using two independent methods, all candidate mAbs were evaluated for their ability to inhibit either 1 μg/mL canine or 0.2 μg/mL feline IL-31 induced STAT3 phosphorylation. […] To ensure complex formation, a one hour co-incubation of mAb and IL-31 cytokine prior to cell stimulation was completed. IL-31 cell stimulation was carried out for five minutes. STAT3 phosphorylation was measured using AlphaLISA SureFire ULTRA™ technology (Perkin Elmer, Waltham, Mass.). In the case where antibody concentration and purity are unknown, hybridoma supernatants were qualitatively measured for their ability to inhibit STAT3 phosphorylation following a 1 hour co-incubation with […] IL-31. The potency of individual monoclonal antibodies defined by their ability to inhibit IL-31 mediated STAT3 phosphorylation in these assays was considered the key selection criteria for further advancement of select antibodies. The term potency refers to the IC50 value calculated from these assays and is the concentration of the antibody where signaling induced by IL-31 is reduced to one half its maximal value.

[4] = tested on: feline IL-31; assay: Inhibition of feline IL-31 induced pSTAT3 signaling in canine DH-82 cells; assay type: cell-based; conditions: feline IL-31, pSTAT3, canine DH82 cells (FIG. 3)
Protocol: as §2
Target sequence in this assay (as listed by the source): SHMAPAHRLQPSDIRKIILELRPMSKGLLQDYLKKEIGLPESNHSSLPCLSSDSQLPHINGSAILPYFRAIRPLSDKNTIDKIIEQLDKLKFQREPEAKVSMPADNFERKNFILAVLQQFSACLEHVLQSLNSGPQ

[5] = molecular target: T1, canine IL-31 (Canis lupus familiaris, UniProt A0A8I3S3D1); assay: Inhibition of canine IL-31 induced pSTAT3 signaling in canine DH-82 and feline FCWF4 cells; assay type: cell-based; conditions: canine IL-31; canine and feline cell types, cell type of the values not specified
T1 construct: made in house; host or cells: CHO cells (CHROMOS ACE system)
T1 sequence (A0A8I3S3D1 24-159): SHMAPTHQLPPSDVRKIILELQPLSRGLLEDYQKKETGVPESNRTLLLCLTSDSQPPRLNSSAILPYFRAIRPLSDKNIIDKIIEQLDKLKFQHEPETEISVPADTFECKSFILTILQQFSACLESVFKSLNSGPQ
Protocol: as §2

[6] = molecular target: canine IL-31; assay: Affinity of anti-IL-31 antibodies by surface plasmon resonance (Biacore), canine IL-31 surface; assay type: binding; conditions: IL-31 conjugated to the surface (FIG. 2)
Protocol: as §1

Sequence of mAb ZTS-361 (as listed by the source): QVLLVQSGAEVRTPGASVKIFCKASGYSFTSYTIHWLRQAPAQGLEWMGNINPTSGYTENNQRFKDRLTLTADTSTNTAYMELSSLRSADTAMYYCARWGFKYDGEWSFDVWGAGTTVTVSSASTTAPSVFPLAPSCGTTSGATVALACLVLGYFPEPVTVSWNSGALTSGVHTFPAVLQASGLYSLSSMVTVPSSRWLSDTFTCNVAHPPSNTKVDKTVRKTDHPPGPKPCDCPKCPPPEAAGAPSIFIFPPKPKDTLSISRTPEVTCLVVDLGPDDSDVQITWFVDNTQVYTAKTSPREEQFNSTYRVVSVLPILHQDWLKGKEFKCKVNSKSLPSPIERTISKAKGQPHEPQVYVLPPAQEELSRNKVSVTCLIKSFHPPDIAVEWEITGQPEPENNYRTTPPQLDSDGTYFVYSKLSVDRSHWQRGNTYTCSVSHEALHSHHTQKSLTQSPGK
Sequence of mAb ZTS-361 (as listed by the source): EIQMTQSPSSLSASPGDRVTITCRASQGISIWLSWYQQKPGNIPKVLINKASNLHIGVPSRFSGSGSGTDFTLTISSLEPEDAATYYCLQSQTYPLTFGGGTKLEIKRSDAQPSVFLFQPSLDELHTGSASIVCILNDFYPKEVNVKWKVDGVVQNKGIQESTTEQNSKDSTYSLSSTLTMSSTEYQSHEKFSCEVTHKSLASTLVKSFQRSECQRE
Sequence of canine IL-31 (as listed by the source): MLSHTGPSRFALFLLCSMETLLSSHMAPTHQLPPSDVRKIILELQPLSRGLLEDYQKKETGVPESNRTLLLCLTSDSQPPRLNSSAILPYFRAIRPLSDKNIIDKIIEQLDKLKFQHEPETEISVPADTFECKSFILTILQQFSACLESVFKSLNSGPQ

Molecule | IC50, conjugated peptide [1] | affinity (KD) to feline IL-31 [2] | potency (IC50) against feline IL-31 in canine DH82 cells [4] | other results
ZTS-564: constrained canine IL-31 15H05 mimotope, N-TEISVPADTFERKSFILT-C plus terminal Cysteines, mT2b linker | poor potency |  |  | 
constrained canine IL-31 15H05 mimotope, N-EISVPADTFERKSF-C plus N and C terminal Cysteines (CEISVPADTFERKSFC; cysteine pairing not given here; also: constrained, mode not given here) [ZTS-562] | 3.024 µg/mL |  |  | decline of potency following conjugation ([1]; conjugated vs unconjugated): approximately 3 fold
constrained canine IL-31 15H05 mimotope, N-TEISVPADTFERKSFILT-C plus N and C terminal Cysteines, mT2a linker [ZTS-561] | poor potency |  |  | 
B1 |  | highly consistent with that of the mouse and chimeric form | highly consistent with values derived from the chimeric and mouse form | potency (IC50) against feline IL-31 in feline FCWF4 cells [3]: highly consistent with values derived from the chimeric and mouse form; IC50 against canine IL-31 [5]: proportionally higher
B2 |  | total loss of binding | complete loss of cellular potency | affinity (KD) to canine IL-31 [6]: total loss of binding; potency (IC50) against feline IL-31 in feline FCWF4 cells [3]: complete loss of cellular potency
B3 |  | KD equivalent to that of the mouse and chimeric form | increased potency | affinity (KD) to canine IL-31 [6]: detrimental effect
B4 |  |  | 0.71 µg/mL | IC50 against canine IL-31 [5]: 12.49 µg/mL

— patent US11433139B2, “Peptide vaccines against interleukin-31” (Zoetis Services LLC, priority 2018, dated 2022)
